Where two headings read alike, the source gives them in different places. Blank lines part the entries; values can stand above or below the binder they belong to.
Tests used:
DR3 (ECD)-Fc = target: T1, DR3 (ECD)-Fc (human); test: HX-MS with hDR3 ECD-Fc
T1 construct: ECD of DR3, a linker with a TEV cleavage site and the Fc part of human IgG4; dimeric fraction used; also called DR3-Fc; hDR3-Fc
Protocol: The Leap robot was equipped with two temperature controlled stacks maintained at 20° C. for buffer storage and HX reactions and maintained at 2° C. for storage of protein and quench solution, respectively. The Waters HDX system furthermore contained a temperature controlled chamber holding the pre- and analytical columns, and the LC tubing and switching valves at 1° C. A separately temperature controlled chamber holds the pepsin column at 25° C. […] The resulting peptides were trapped and desalted on a VanGuard pre-column BEH C18 1.7 μm (2.1×5 mm (Waters Inc.)). Subsequently, the valves were switched to place the pre-column inline with the analytical column, UPLC-BEH C18 1.7 μm (1×100 mm (Waters Inc.)), and the peptides separated using a 9 min gradient of 10-40% B delivered at 200 μl/min from the nanoAQUITY UPLC system (Waters Inc.). The mobile phases consisted of A: 0.1% formic acid and B: 0.1% formic acid in CH₃CN. The ESI MS data, and the separate elevated energy (MS^E) experiments were acquired in positive ion mode using a Synapt G2 mass spectrometer (Waters Inc.).
All HX reactions were carried out at 20° C. and contained […] hDR3 in the absence or presence of […] Fab thus giving a 5 fold molar excess of Fab. […]

DR3 (CRD1)-Fc [1] = target: T2, DR3 (CRD1)-Fc (human); test: SPR
T2 construct: Amino acids 25-71 of DR3 fused to the Fc domain of human IgG4; purified to exclude oligomers (mainly dimeric)
From the text: (§1) The extracellular moiety of DR3 is located at the aminoterminal portion of DR3 and is comprised of four TNF receptor cysteine-rich domains. Several fusion proteins were expressed and purified which contained parts of the extracellular domain of DR3 of increasing length fused to the Fc domain of a human IgG4. The DR3 proteins used for SPR analysis had been purified to exclude oligomerized material. These proteins were immobilized to a CM5 sensor chip using amine coupling chemistry. Binding of anti-DR3 antibodies termed 0070, 0072, 0073 and 0076, to the different DR3-Fc fusion proteins was tested by means of plasmon surface binding measurements on a Biacore T100 instrument (GE Healthcare). All of these antibodies inhibit binding of TL1A to DR3 in a FACS assay. These 4 antibodies bound to recombinant DR3 (CRD1)-Fc protein that contained only the aminoterminal CRD (SEQ ID NO:2) comprised of amino acids 25-71 of DR3.
The same analysis was also performed for some of the Fab fragments.

[2] = target: T3, human DR3 (full length, on cells) (human, UniProt Q93038 25-417); test: cell-based or functional assay
T3 sequence: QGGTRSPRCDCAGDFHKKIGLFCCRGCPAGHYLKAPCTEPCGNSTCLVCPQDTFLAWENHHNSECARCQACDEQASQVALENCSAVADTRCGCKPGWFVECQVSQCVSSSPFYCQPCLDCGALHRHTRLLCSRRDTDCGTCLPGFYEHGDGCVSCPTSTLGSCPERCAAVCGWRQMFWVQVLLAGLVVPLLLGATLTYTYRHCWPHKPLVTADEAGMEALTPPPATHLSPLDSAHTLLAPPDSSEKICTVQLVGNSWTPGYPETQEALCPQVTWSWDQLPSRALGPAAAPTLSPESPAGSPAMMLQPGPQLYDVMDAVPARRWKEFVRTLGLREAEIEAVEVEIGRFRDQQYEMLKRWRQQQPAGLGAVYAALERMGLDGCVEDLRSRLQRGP

[3] = target: T3, human DR3 (full length, on cells); test: cell-based or functional assay; remark: listed apart in the source
[4] = target: T4, human DR3 with the death domain deleted (ΔM339-P417 of SEQ ID NO:1), expressed on CHOK1SV cells (human, UniProt Q93038 25-338); test: flow cytometry competition: Fab vs TL1A on hDR3-expressing CHO cells
T4 construct: also called truncated DR3; hDR3 expressing CHO cells
T4 sequence: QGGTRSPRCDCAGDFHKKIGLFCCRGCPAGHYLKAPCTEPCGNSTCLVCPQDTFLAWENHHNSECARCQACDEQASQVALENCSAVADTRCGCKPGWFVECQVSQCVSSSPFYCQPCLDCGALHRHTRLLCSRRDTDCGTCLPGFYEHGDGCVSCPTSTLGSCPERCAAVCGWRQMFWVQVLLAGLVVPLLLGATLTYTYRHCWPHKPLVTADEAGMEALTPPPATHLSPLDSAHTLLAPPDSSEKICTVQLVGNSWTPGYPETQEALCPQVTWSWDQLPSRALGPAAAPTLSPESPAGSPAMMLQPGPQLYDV

[5] = target: T3, human DR3 (full length, on cells); test: cell-based or functional assay; remark: listed apart in the source
[6] = target: T3, human DR3 (full length, on cells); test: cell-based or functional assay; remark: listed apart in the source
DR3 (CRD1)-Fc [7] = target: T2, DR3 (CRD1)-Fc; test: SPR, Biacore T100, DR3-Fc fusion immobilised
From the text: as §1

[8] = target: T3, human DR3 (full length, on cells); test: flow cytometry on CD3/CD28-stimulated human CD4+ T cells
Protocol: Human CD4-positive T cells were purified from Buffy coats using CD4 Rosettesep (Stem cell technologies) and Histopaque (Sigma). T cells were stimulated with CD3/CD28 Dynabeads (Invitrogen) at a 1:1 ratio for 4 days in T75 flask at 2 mio CD4 T cells/ml in RPMI supplemented with 10% fcs. Beads were removed using a magnet, and cells were washed twice before titrating in antibodies on 500.000 cells/staining. Binding saturation was measured after incubation with goat-anti-mouse phycoerythrin (Jackson ImmunoResearch) and cells were subsequently analysed by flow cytometry on a BD LSRII. All antibodies reached saturation at 3 μg/ml.

[9] = target: T3, human DR3 (full length, on cells); test: flow cytometry on IL-12/IL-18/TL1A activated CD4+ T cells, 1 µg/ml
Protocol: (§2) Buffy Coats were obtained from normal healthy volunteers from Copenhagen University Hospital. CD4+ T cells were isolated through magnetic bead separation. Cells were activated with 2 ng/ml IL-12, 50 ng/ml IL-18 and 100 ng/ml TL1A (Flag-HIS-TEV-TL1A-produced at Novo Nordisk A/S) and cultured for 5 days. On day 5 cells were stained with 10, 5, 1, 0.5, 0.1 or 0.0001 μg/ml of the anti-DR3 mAb clones 0072, 0073, or 0077, or with Fab fragment clones 0087, 0088 and 0091. A secondary PE conjugated goat-anti-mouse (H+L) was used for detection.
The greater observed MFI values of IgG treated compared with Fab treated cells was expected since the secondary (detecting) antibody (anti-IgG heavy and light chain) bound to both Fab and Fc parts of the full-length IgG antibody clones, but only to Fab parts of Fab clones (Table 9).

[10] = target: T3, human DR3 (full length, on cells); test: as above; remark: listed apart in the source
Protocol: as §2
as §2, with “Material and Methods: Buffy” for “Buffy”, “Copenhagen” for “Copenhagen University”, “0088 or” for “0088 and”, “detection. Samples were in duplicate. Staining intensity was evaluated by FACS.” for “detection.”

B3: 0072 (murine mAb purified from hybridoma 27F44A2) (antibody, mouse IgG1, V domains shown)
VH: EVKLVESGGGLVKPGGSLKLSCSASGFAFSNYDMSWVRQTPEKRLEWVAAFSSDGYTFYPDSLKGRFTISRDNARNTLYLQMSSLGSEDTALYCCARHADYANYPVMDYWGQGTSVTVSS
VL: DIVLAQSPASLLVSLGQRATISCRASKSVSTSGYSYMHWYQQKPGQPPKLLIYLASNLESGVPARFSGSGSGTDFTLNIHPVEEEDAATYYCQHSRELPLTFGAGTMLELKR
notes: murine IgG1, kappa; also called 0084
fold response, DR3 reporter, 40 ng/ml TL1A + 0.000256 microg/ml [5]: 33.8 fold
fold response, DR3 reporter, 40 ng/ml TL1A + 0.00128 microg/ml [5]: 37.2 fold
fold response, DR3 reporter, 40 ng/ml TL1A + 0.0064 microg/ml [5]: 40.3 fold
fold response, DR3 reporter, 40 ng/ml TL1A + 0.032 microg/ml [5]: 41 fold
fold response, DR3 reporter, 40 ng/ml TL1A + 0.08 microg/ml [5]: 38.4 fold
fold response, DR3 reporter, 40 ng/ml TL1A + 4 microg/ml [5]: 34 fold
fold response, DR3 reporter, 40 ng/ml TL1A + 20 microg/ml [5]: 27.8 fold
fold response, DR3 reporter, 40 ng/ml TL1A + 100 microg/ml [5]: 18.4 fold
fold response, DR3 reporter, no TL1A, 0.000256 microg/ml [5]: 1.1 fold
fold response, DR3 reporter, no TL1A, 0.00128 microg/ml [5]: 2.2 fold
fold response, DR3 reporter, no TL1A, 0.0064 microg/ml [5]: 9.3 fold
fold response, DR3 reporter, no TL1A, 0.032 microg/ml [5]: 18.6 fold
fold response, DR3 reporter, no TL1A, 0.08 microg/ml [5]: 25.1 fold
fold response, DR3 reporter, no TL1A, 4 microg/ml [5]: 21.1 fold
fold response, DR3 reporter, no TL1A, 20 microg/ml [5]: 16.3 fold
fold response, DR3 reporter, no TL1A, 100 microg/ml [5]: 9.2 fold
fold response, DR3 reporter, 40 ng/ml TL1A + 0.1 microg/ml [6]: 29.6 fold
fold response, DR3 reporter, 40 ng/ml TL1A + 1 microg/ml [6]: 24.8 fold
fold response, DR3 reporter, 40 ng/ml TL1A + 10 microg/ml [6]: 23.3 fold
fold response, DR3 reporter, 40 ng/ml TL1A + 100 microg/ml [6]: 13.6 fold
fold response, DR3 reporter, no TL1A, 0.1 microg/ml [6]: 20.6 fold
fold response, DR3 reporter, no TL1A, 1 microg/ml [6]: 19.8 fold
fold response, DR3 reporter, no TL1A, 10 microg/ml [6]: 17.3 fold
fold response, DR3 reporter, no TL1A, 100 microg/ml [6]: 8.5 fold
binding result (DR3 (CRD1)-Fc [7]): binds
Median Fluorescent Intensity [8]: 2650
Staining index (MFI Ab/MFI Isotype) [8]: 11.9
saturation concentration [8]: 3 µg/mL
MFI [9]: 1300 MFI
MFI [10]: 1300 MFI

B4: 0070 (murine mAb purified from hybridoma 27F16A1) (antibody, V domains shown)
VH: EVQLVESGGDFVKPGGSLKLSCAASGFTFNNYGMSWVRQTPDKRLEWVAAISSGVTYTYYPDTVKGRFTISRDNAKNTLYLHMSSLKSEDTAMYYCGRHDDYGNHFDYWGQGTTLTVSS
VL: DIVMTQSPSSLAMSLGQRVTMNCKSSQSLLNSHNQKNYLAWYQQKPGQSPKLLVYFASSRESGVPDRFIGSGSGTDFTLTISSVQAEDLADYFCQQHYSTPFTFGSGTKLEIKR
notes: murine IgG1, kappa; also called 0083
binding result (DR3 (CRD1)-Fc [7]): binds
Median Fluorescent Intensity [8]: 2330
Staining index (MFI Ab/MFI Isotype) [8]: 10.5
saturation concentration [8]: 3 µg/mL

More lines, main results first:

binding result (DR3 (ECD)-Fc): binds
B1: 0163 (chimeric Fab of 45F187, human IgG4 constant domain, hinge Cys->Ser) (Fab, V domains shown)
VH: EVQLVESGGGLVQPGGSLRLSCATSGFTFTNYYMAWVRKPPGKTLEWLGFMRNIVNGYTTDYSGSVEGRFTISRDNSQSILYLQMNALRPEDSATYYCARDIGYRYDGGGYGLDYWGQGTSVTVSS
VL: DIQMTQSPASLSASVGETVTLTCRASGNIHNYLTWYQQKQGKSPQLLVYNVKTLADGVSSRFSGSGSGTQFSLKINSLQPEDFGSYYCQHFWTTPYTFGGGTKLEIRR
notes: IgG4-Ser, chimeric; also called 0150

binding result (DR3 (CRD1)-Fc [1]): binds
IC50 at 40 ng/ml TL1A, I5 reporter cells [2]: 2.1 nM
IC50, TNFalpha inhibition, TL1A-activated CD4+ T cells, donor 1 [3]: 0.183 nM
IC50, TNFalpha inhibition, average (n 1) [3]: 0.183 nM
max % inhibition of TNFalpha, donor 1 [3]: 73.5%
B2: 0152 (chimeric Fab of 50F191, human IgG4 constant domain, hinge Cys->Ser) (Fab, V domains shown)
VH: EVQLVESGGGLVEPGGSLKLSCAASGFTFSTYAMSWVRQSPEKRLEWVAEISSGDSYTYYPDIVTGRFTISRDDAKNTLFLEMSSLRSEDTAIYYCVRDQDYRYDGYYAMDHWGQGTSVTVSS
VL: DIVLTQSPASLAVSLGQRATISCRASESVEHYGTSLMQWYQQKPGQPPKLLIYAASNVESGVPARFSGRGSGPDFSLNIHPVEEDDIAMYFCQQSRRIPWTFGGGTKLEIKR
notes: IgG4-Ser, chimeric
IC50 [4]: 0.512 nM
max percentage inhibition [4]: 53%

Source: patent publication US20170305994A1 (Novo Nordisk, published 2017)
